Measured values as given in publication PMC9108626, “Mammalian UPF3A and UPF3B can activate nonsense‐mediated mRNA decay independently of their exon junction complex binding” (The EMBO Journal, 2022).
Each block holds one binder with its values, some of them ahead of it.

Experiments:
Conditions in all cases: partners not purified
[1] = target: T1, EIF4A3 (endogenous, HCT116) (human (endogenous in HCT116), UniProt P38919 1-411); experiment: co-IP; EIF4A3-IP from 3^DKO#2 HCT116 cells stably expressing FLAG-tagged UPF3 proteins, UPF3A chimeras or EGFP; FLAG-tagged proteins quantified against EIF4A3; immunoblot
T1 construct: EIF4A3, human, core factor of the exon junction complex, endogenous in HCT116 cells; also called core EJC factor EIF4A3; source: endogenous, HCT116 lysate
T1 sequence (P38919 whole entry): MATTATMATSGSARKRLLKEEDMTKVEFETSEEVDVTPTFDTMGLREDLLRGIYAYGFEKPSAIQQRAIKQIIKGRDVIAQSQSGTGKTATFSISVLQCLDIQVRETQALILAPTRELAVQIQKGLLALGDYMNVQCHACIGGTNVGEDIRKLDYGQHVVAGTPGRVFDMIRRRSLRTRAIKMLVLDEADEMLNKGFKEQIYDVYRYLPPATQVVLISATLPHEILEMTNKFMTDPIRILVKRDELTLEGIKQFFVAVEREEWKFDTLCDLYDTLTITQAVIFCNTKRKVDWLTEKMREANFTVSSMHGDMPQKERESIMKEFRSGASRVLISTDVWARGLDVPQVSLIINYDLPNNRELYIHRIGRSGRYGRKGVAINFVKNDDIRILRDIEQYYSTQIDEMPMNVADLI

[2] = target: T2, EIF4A3 (endogenous, HeLa Tet‐off) (human (endogenous in HeLa), UniProt P38919 1-411); experiment: co-IP; EIF4A3-IP (IgG-IP as control) from HeLa Tet-off cells and 3B^KO#3 HeLa Tet-off cells, with overexpression of CASC3 wild type or the HDAA mutant; immunoblot
T2 construct: EIF4A3, human, endogenous in HeLa Tet-off cells; also called EJC; source: endogenous, lysate of HeLa Tet-off and 3B^KO#3 HeLa Tet-off cells
T2 sequence (P38919 whole entry): as above

[3] = target: T1, EIF4A3 (endogenous, HCT116); experiment: co-IP; EIF4A3-IP (antibody on protein-A Dynabeads; normal rabbit IgG as control) from WT and UPF3B mutant (3B^Δ2BD, 3B^KO) HCT116 lysates; 4°C, washes with 150 mM NaCl; immunoblot

fold weaker co-IP against UPF3B [1]: ~3 fold
B1: FLAG‐tagged human UPF3A (stably expressed in 3^DKO#2 cells) (natural protein, UniProt Q9H1J1 1-476, looked up)
chain: MRSEKEGAGGLRAAVAARGPSGREKLSALEVQFHRDSQQQEAETPPTSSSGCGGGAGKPREEKRTALSKVVIRRLPPGLTKEQLEEQLRPLPAHDYFEFFAADLSLYPHLYSRAYINFRNPDDILLFRDRFDGYIFLDSKGLEYPAVVEFAPFQKIAKKKLRKKDAKTGSIEDDPEYKKFLETYCVEEEKTSANPETLLGEMEAKTRELIARRTTPLLEYIKNRKLEKQRIREEKREERRRRELEKKRLREEEKRRRREEERCKKKETDKQKKIAEKEVRIKLLKKPEKGEEPTTEKPKERGEEIDTGGGKQESCAPGAVVKARPMEGSLEEPQETSHSGSDKEHRDVERSQEQESEAQRYHVDDGRRHRAHHEPERLSRRSEDEQRWGKGPGQDRGKKGSQDSGAPGEAMERLGRAQRCDDSPAPRKERLANKDRPALQLYDPGARFRARECGGNRRICKAEGSGTGPEKREEAE
notes: UPF3A, human, CCDS9543.1; wild type; domains are defined over residues 2-476; cloned in pcDNA3ez-FLAG and moved to a Tet-ON PiggyBac plasmid; also called hUPF3A; FLAG‐UPF3A

fold increase of co-IP upon overexpression of wild-type CASC3 [2]: 3 fold
B2: UPF3A (endogenous, UPF3B knockout HeLa Tet‐off) (natural protein, human (endogenous in HeLa), UniProt Q9H1J1 1-476, looked up)
chain: B1 chain
notes: UPF3A, human, endogenous in HeLa Tet-off cells; source: endogenous, 3B^KO#3 HeLa Tet-off lysate

fold increase of co-IP in UPF3B mutant cells over WT cells [3]: ~2 fold
B3: UPF3A (endogenous, HCT116) (natural protein, human (endogenous in HCT116), UniProt Q9H1J1 1-476, looked up)
chain: B1 chain
notes: UPF3A, human, endogenous in HCT116 cells; source: endogenous, HCT116 lysate (WT, 3B^Δ2BD, 3B^KO cells)

fold increase of co-IP upon overexpression of wild-type CASC3 [2]: 2.6 fold
B4: UPF3B (endogenous, HeLa Tet‐off) (natural protein, human (endogenous in HeLa), UniProt Q9BZI7 1-483, looked up)
chain: MKEEKEHRPKEKRVTLLTPAGATGSGGGTSGDSSKGEDKQDRNKEKKEALSKVVIRRLPPTLTKEQLQEHLQPMPEHDYFEFFSNDTSLYPHMYARAYINFKNQEDIILFRDRFDGYVFLDNKGQEYPAIVEFAPFQKAAKKKTKKRDTKVGTIDDDPEYRKFLESYATDNEKMTSTPETLLEEIEAKNRELIAKKTTPLLSFLKNKQRMREEKREERRRREIERKRQREEERRKWKEEEKRKRKDIEKLKKIDRIPERDKLKDEPKIKVHRFLLQAVNQKNLLKKPEKGDEKELDKREKAKKLDKENLSDERASGQSCTLPKRSDSELKDEKPKRPEDESGRDYREREREYERDQERILRERERLKRQEEERRRQKERYEKEKTFKRKEEEMKKEKDTLRDKGKKAESTESIGSSEKTEKKEEVVKRDRIRNKDRPAMQLYQPGARSRNRLCPPDDSTKSGDSAAERKQESGISHRKEGGEE
notes: UPF3B, human, endogenous in HeLa Tet-off cells; source: endogenous, HeLa Tet-off lysate
